The values that follow come from publication PMC8998314, “MYB2 Is Important for Tapetal PCD and Pollen Development by Directly Activating Protease Expression in Arabidopsis”.

This series has as its target T1, HIS-MYB2 (Arabidopsis thaliana, UniProt Q39028 1-273).
T1 sequence: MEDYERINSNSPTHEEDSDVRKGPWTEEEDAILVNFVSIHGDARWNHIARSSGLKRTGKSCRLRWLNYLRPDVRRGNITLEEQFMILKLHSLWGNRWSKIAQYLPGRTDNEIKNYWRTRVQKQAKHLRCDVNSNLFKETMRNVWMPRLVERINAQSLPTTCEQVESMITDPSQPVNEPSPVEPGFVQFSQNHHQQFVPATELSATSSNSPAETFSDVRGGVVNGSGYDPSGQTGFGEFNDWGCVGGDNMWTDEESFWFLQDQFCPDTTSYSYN
The series can be described thus: EMSA; EMSA binding buffer (Beyotime Chemiluminescent EMSA kit, composition and pH not stated), 30 min at 25 °C. As to conditions: protein: recombinant; tags: His (pET-30a); label: biotin.

B1: CEP1 short probe(s) with AAACCA (dsDNA)
DNA 1: GCTCCTGAAAACCATAATCAGA
DNA 2: TCTGATTATGGTTTTCAGGAGC
With B1, the binding result was “binds”.

B2: CEP1 short probe with TAACTG (dsDNA)
DNA 1: TTAGACAACAGTTATTGTAATG
DNA 2: CATTACAATAACTGTTGTCTAA
Turning to B2, the binding result is “binds”.
